Values of other authors as cited in article PMC4899099.

Molecular target: Carboxypeptidase E (UniProt P04836)
Sequence of UniProt P04836 (P04836 42-475): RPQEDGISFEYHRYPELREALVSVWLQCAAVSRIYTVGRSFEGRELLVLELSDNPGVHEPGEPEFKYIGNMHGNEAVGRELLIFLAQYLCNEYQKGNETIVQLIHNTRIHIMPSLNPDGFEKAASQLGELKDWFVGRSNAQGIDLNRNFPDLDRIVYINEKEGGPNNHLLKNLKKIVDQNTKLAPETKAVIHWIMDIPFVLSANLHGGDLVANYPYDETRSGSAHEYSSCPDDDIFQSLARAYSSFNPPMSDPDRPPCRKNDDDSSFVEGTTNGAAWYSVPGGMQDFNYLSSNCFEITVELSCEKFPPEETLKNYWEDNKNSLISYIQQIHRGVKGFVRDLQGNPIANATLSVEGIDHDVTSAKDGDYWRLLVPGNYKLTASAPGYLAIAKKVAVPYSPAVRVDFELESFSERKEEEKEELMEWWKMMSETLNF

N-POMC(1-26) 1-26 (from UniProt P01190)
Kd: 6 µM
